Experimental data as given in publication PMC3826990.

Target: His-Nudel^1–201 (UniProt Q9GZM8)
Experiment: ITC

Sequence of UniProt Q9GZM8 (Q9GZM8 1-201): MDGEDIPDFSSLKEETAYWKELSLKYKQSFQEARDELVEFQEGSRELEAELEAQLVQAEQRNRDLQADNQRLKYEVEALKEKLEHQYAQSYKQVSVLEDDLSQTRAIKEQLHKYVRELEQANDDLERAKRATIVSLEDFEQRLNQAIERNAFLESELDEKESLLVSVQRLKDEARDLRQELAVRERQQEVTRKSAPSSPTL

Substance	Kd
His-DIC (natural protein)	7.8 µM
His-tagged Lis1 (from UniProt P43034 1-410) (natural protein)	0.41 µM
